Where two headings read alike, the source gives them in different places.
How the values were obtained:
Experiment in all cases: diffusion NMR
diffusion NMR [1] = biological target: the molecule itself
diffusion NMR [2] = biological target: the molecule itself; remark: listed apart in the source
diffusion NMR [3] = biological target: the molecule itself; remark: listed apart in the source

B1: Surfactant protein A (SP-A), bovine (natural protein)
chain: not shown
Diffusion NMR [1]
  stoichiometry N: ~10 molecules
Diffusion NMR [2]
  stoichiometry N: ~12 molecules
Diffusion NMR [3]
  stoichiometry N: ~9 molecules
